Ends that are not written are not given here.
Columns and labels:
[1] = target: Halo-tagged isopeptide-blocker (Spy0128 β-strand11 mimic) (Streptococcus pyogenes); experiment: pull-down
[2] = target: Spy0128 polyprotein I91-Spy0128-I91-Spy0128-I91 (not stated | Streptococcus pyogenes); experiment: AFM force spectroscopy

With “Spy0128 polyprotein I91-Spy0128-I91-Spy0128-I91” the percent of modified Spy0128 after enrichment on Magne-HaloTag-beads [1] was 60%.

MEFTDKDMTITFTNKKDAEEDIRSEDLYFQSDNTTPE (also: Halo-tagged, site not given here) [Halo-tagged isopeptide-blocker (Spy0128 β-strand11 mimic)] showed a percent of AFM traces with at least one modified Spy0128 [2] of 32.5% and a percent of Spy0128 blocked [2] of 21.1%.

— paper doi:10.1101/310227
